The values that follow come from US20240360194A1, “New Peptides as Potent and Selective GIP Receptor Agonists” (Sanofi, priority 2021, published 2024).

Numbered stars: 1 amine (or outer) side, 2 acyl side, 3 side chain; on linkers, the order of the positions; unused ones are H or OH. Square brackets hold non-standard residues; d marks the D form. Side chains are listed from the residue outwards. Ends that are not written are not given here. * marks the point of attachment. C18 diacid = O=C(O)CCCCCCCCCCCCCCCCC(=O)*; γGlu = O=C(O)[C@H](CCC(=O)[*:2])N[*:1]; AEEA = NCCOCCOCC(=O)O; Aib = CC(C)(N)C(=O)O

In test [1] the target is T1, human GIP receptor (human, UniProt P48546 22-466).
T1 sequence (looked up): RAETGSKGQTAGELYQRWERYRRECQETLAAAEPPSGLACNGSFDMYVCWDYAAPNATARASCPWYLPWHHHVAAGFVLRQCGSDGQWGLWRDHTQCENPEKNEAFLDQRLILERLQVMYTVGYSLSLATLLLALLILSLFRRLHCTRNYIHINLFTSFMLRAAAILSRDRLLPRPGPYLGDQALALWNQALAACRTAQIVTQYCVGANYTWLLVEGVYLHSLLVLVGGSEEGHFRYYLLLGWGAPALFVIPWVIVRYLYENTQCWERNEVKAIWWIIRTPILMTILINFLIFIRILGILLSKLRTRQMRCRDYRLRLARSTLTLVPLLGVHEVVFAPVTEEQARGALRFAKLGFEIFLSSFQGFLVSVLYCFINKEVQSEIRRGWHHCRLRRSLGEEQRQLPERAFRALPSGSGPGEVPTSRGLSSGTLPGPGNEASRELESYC
As to the kind of experiment: cell-based or functional assay.

Test [2] concerns the target T2, human GLP-1 receptor (human, UniProt P43220 24-463). As to the kind of experiment: cell-based or functional assay.
For test [3], the target named is T1, human GIP receptor. Briefly: cell-based or functional assay. The source holds these as a separate data set.
Test [4] concerns the target T2, human GLP-1 receptor. As to the kind of experiment: displacement of [125I]GLP-1 from HEK-293 membranes expressing hGLP-1R (SPA beads). (In general: Displacement assays read how much labelled ligand stays bound in the presence of the test substance.)

B1: SEQ ID NO: 29 (peptide)
peptide: Y[Aib]EGTFISDLSI[Aib]K([AEEA-AEEA-γGlu-C18 diacid])DRIHQ[Aib]EFIEWLLAQEPSSGAPPPS-NH2
modifications: N-terminus assumed
SMILES: CC[C@H](C)[C@H](NC(=O)[C@H](CCCNC(=N)N)NC(=O)[C@H](CC(=O)O)NC(=O)[C@H](CCCCNC(=O)COCCOCCNC(=O)COCCOCCNC(=O)CC[C@H](NC(=O)CCCCCCCCCCCCCCCCC(=O)O)C(=O)O)NC(=O)C(C)(C)NC(=O)[C@@H](NC(=O)[C@H](CO)NC(=O)[C@H](CC(C)C)NC(=O)[C@H](CC(=O)O)NC(=O)[C@H](CO)NC(=O)[C@@H](NC(=O)[C@H](Cc1ccccc1)NC(=O)[C@@H](NC(=O)CNC(=O)[C@H](CCC(=O)O)NC(=O)C(C)(C)NC(=O)[C@@H](N)Cc1ccc(O)cc1)[C@@H](C)O)[C@@H](C)CC)[C@@H](C)CC)C(=O)N[C@@H](Cc1c[nH]cn1)C(=O)N[C@@H](CCC(N)=O)C(=O)NC(C)(C)C(=O)N[C@@H](CCC(=O)O)C(=O)N[C@@H](Cc1ccccc1)C(=O)N[C@H](C(=O)N[C@@H](CCC(=O)O)C(=O)N[C@@H](Cc1c[nH]c2ccccc12)C(=O)N[C@@H](CC(C)C)C(=O)N[C@@H](CC(C)C)C(=O)N[C@@H](C)C(=O)N[C@@H](CCC(N)=O)C(=O)N[C@@H](CCC(=O)O)C(=O)N1CCC[C@H]1C(=O)N[C@@H](CO)C(=O)N[C@@H](CO)C(=O)NCC(=O)N[C@@H](C)C(=O)N1CCC[C@H]1C(=O)N1CCC[C@H]1C(=O)N1CCC[C@H]1C(=O)N[C@@H](CO)C(N)=O)[C@@H](C)CC
notes: Synthetic peptide, 39 residues (Glu at 30)
One may read the IC50 as the concentration that inhibits the measured activity by half. Higher therefore signals lower potency. Regarding B1, in the test with human GIP receptor [1], the “EC50 hGIPR 0% HSA (cAMP, HEK-293)” value was 0.00015 nM and the “EC50 hGIPR 0.1% BSA (cAMP, HEK-293)” value came out at 0.0152 nM. Moreover, the “EC50 hGLP-1R 0.1% BSA (cAMP, HEK-293)” value with human GLP-1 receptor [2] was over 10 nM. In addition, in the test with human GIP receptor [3], the “hGIPR EC50 (cAMP, human adipocytes)” value was determined as 5.3 nM and the “hGIPR Emax (cAMP, human adipocytes)” value was 119%. Also, the IC50 with human GLP-1 receptor [4] is 287 nM.

B2: SEQ ID NO: 27 (peptide)
peptide: Y[Aib]EGTFISDLSI[Aib]K([AEEA-AEEA-γGlu-C18 diacid])DRIHQEEFIEWLLAQEPSSGAPPPS-NH2
modifications: N-terminus assumed
SMILES: CC[C@H](C)[C@H](NC(=O)[C@H](Cc1ccccc1)NC(=O)[C@H](CCC(=O)O)NC(=O)[C@H](CCC(=O)O)NC(=O)[C@H](CCC(N)=O)NC(=O)[C@H](Cc1c[nH]cn1)NC(=O)[C@@H](NC(=O)[C@H](CCCNC(=N)N)NC(=O)[C@H](CC(=O)O)NC(=O)[C@H](CCCCNC(=O)COCCOCCNC(=O)COCCOCCNC(=O)CC[C@H](NC(=O)CCCCCCCCCCCCCCCCC(=O)O)C(=O)O)NC(=O)C(C)(C)NC(=O)[C@@H](NC(=O)[C@H](CO)NC(=O)[C@H](CC(C)C)NC(=O)[C@H](CC(=O)O)NC(=O)[C@H](CO)NC(=O)[C@@H](NC(=O)[C@H](Cc1ccccc1)NC(=O)[C@@H](NC(=O)CNC(=O)[C@H](CCC(=O)O)NC(=O)C(C)(C)NC(=O)[C@@H](N)Cc1ccc(O)cc1)[C@@H](C)O)[C@@H](C)CC)[C@@H](C)CC)[C@@H](C)CC)C(=O)N[C@@H](CCC(=O)O)C(=O)N[C@@H](Cc1c[nH]c2ccccc12)C(=O)N[C@@H](CC(C)C)C(=O)N[C@@H](CC(C)C)C(=O)N[C@@H](C)C(=O)N[C@@H](CCC(N)=O)C(=O)N[C@@H](CCC(=O)O)C(=O)N1CCC[C@H]1C(=O)N[C@@H](CO)C(=O)N[C@@H](CO)C(=O)NCC(=O)N[C@@H](C)C(=O)N1CCC[C@H]1C(=O)N1CCC[C@H]1C(=O)N1CCC[C@H]1C(=O)N[C@@H](CO)C(N)=O
notes: as for B1
Turning to B2, in the test with human GIP receptor [1], the “EC50 hGIPR 0% HSA (cAMP, HEK-293)” value worked out at 0.00029 nM and the “EC50 hGIPR 0.1% BSA (cAMP, HEK-293)” value was 0.032 nM. For the same molecule, the “EC50 hGLP-1R 0.1% BSA (cAMP, HEK-293)” value with human GLP-1 receptor [2] is over 10 nM. Besides, in the test with human GIP receptor [3], the “hGIPR EC50 (cAMP, human adipocytes)” value was 0.6 nM and the “hGIPR Emax (cAMP, human adipocytes)” value stood at 116%. In the test with human GLP-1 receptor [4], this molecule registered an IC50 of 465 nM.
